Patent EP4039268A1 (IMBA-Institut für Molekulare Biotechnologie GmbH, dated 2022)

B1: Mrc1_2 CRD-mouse IgG2a-Fc fusion protein (Fc fusion)
chain: YAGHCYRIHREEKKIQKYALQACRKEGGDLASIHSIEEFDFIFSQLGYEPNDELWIGLNDIKIQMYFEWSDGTPVTFTKWLPGEPSHENNRQEDCVVMKGKDGYWADRACEQPLGYICKGGGSGGGSGGGS
B2: Lgals4_2 CRD-mouse IgG2a-Fc fusion protein (Fc fusion)
chain: YVGALQGGLTVRRTIIIKGYVLPTARNFVINFKVGSSGDIALHLNPRIGDSVVRNSFMNGSWGAEERKVAYNPFGPGQFFDLSIRCGMDRFKVFANGQHLFDFSHRFQAFQMVDTLEINGDITLSYVQIGGGSGGGSGGGS
B3: Pla2r1_5 CRD-mouse IgG2a-Fc fusion protein (Fc fusion)
chain: YQNAEYLFHTHPAEWATFEFVCGWLRSDFLTIYSAQEQEFIHSKIKGLTKYGVKWWIGLEEGGARDQIQWSNGSPVIFQNWDKGREERVDSQRKRCVFISSITGLWGTENCSVPLPSICKGGGSGGGSGGGS
B4: Mrc2_3 CRD-mouse IgG2a-Fc fusion protein (Fc fusion)
chain: HSPSCYWLGEDQVIYSDARRLCTDHGSQLVTITNRFEQAFVSSLIYNWEGEYFWTALQDLNSTGSFRWLSGDEVIYTHWNRDQPGYRRGGCVALATGSAMGLWEVKNCTSFRARYICGGGSGGGSGGGS
B5: Pla2r1_4 CRD-mouse IgG2a-Fc fusion protein (Fc fusion)
chain: GLASCFKVFHSEKVLMKRSWREAEAFCEEFGAHLASFAHIEEENFVNELLHSKFNWTQERQFWIGFNRRNPLNAGSWAWSDGSPVVSSFLDNAYFEEDAKNCAVYKANKTLLPSNCASKHEWICRGGGSGGGSGGGS
B6: Lgals12_2 CRD-mouse IgG2a-Fc fusion protein (Fc fusion)
chain: CSRALPRGLWPGQVIVVRGLVLKEPKDFTLSLKDGTTHVPVTLRASFTDRTLAWVSSWGRKKLISAPFLFHPQRFFEVLLLCQEGGLKLALNGQGLGATSLDQKALEQLRELRISGNVHLYCVHCGGGSGGGSGGGS
B7: Mrc2_7 CRD-mouse IgG2a-Fc fusion protein (Fc fusion)
chain: YLNHTFRLLQKPLRWKDALLLCESRNASLAHVPDPYTQAFLTQAARGLQTPLWIGLASEEGSRRYSWLSEEPLNYVSWQDEEPQHSGGCAYVDVDGTWRTTSCDTKLQGAVCGGGSGGGSGGGS
B8: Mrc1_1 CRD-mouse IgG2a-Fc fusion protein (Fc fusion)
chain: LTGILYQINSKSALTWHQARASCKQQNADLLSVTEIHEQMYLTGLTSSLSSGLWIGLNSLSVRSGWQWAGGSPFRYLNWLPGSPSSEPGKSCVSLNPGKNAKWENLECVQKLGYICKGGGSGGGSGGGS
B9: Lgals8_2 CRD-mouse IgG2a-Fc fusion protein (Fc fusion)
chain: FEARLNASMGPGRTVVIKGEVNTNARSFNVDLVAGKTRDIALHLNPRLNVKAFVRNSFLQDAWGEEERNITCFPFSSGMYFEMIIYCDVREFKVAINGVHSLEYKHRFKDLSSIDTLSVDGDIRLLDVRSWGGGSGGGSGGGS
B10: Mbl2 CRD-mouse IgG2a-Fc fusion protein (Fc fusion)
chain: KVGKKYFVSSVKKMSLDRVKALCSEFQGSVATPRNAEENSAIQKVAKDIAYLGITDVRVEGSFEDLTGNRVRYTNWNDGEPNNTGDGEDCVVILGNGKWNDVPCSDSFLAICEGGGSGGGSGGGS
B11: Ly75_6 CRD-mouse IgG2a-Fc fusion protein (Fc fusion)
chain: FQNKCFLKVNSGPVTFSQASGICHSYGGTLPSVLSRGEQDFIISLLPEMEASLWIGLRWTAYERINRWTDNRELTYSNFHPLLVGRRLSIPTNFFDDESHFHCALILNLKKSPLTGTWNFTSCSERHSLSLCQKGGGSGGGSGGGS
B12: Lgalslb CRD-mouse IgG2a-Fc fusion protein (Fc fusion)
chain: YFRGHIKGGMRPGKKVLVMGIVDHNPKSFAISLTCGDSEDPPADVAIELKVVFTNQQVFRNSCISGESDEENLAFPYFPFVPDQPFRMEIFCQQPCFRVLVDGHHLFDFYHRIQTLSAIDSIKISGDLQIGGGSGGGSGGGS
B13: Cd209a CRD-mouse IgG2a-Fc fusion protein (Fc fusion)
chain: FQGSCYFFSVAQKSWNDSATACHNVGAQLVVIKSDEEQNFLQQTSKKRGYTWMGLIDMSKESTWYWVDGSPLTLSFMKYWSKGEPNNLGEEDCAEFRDDGWNDTKCTNKKFWICKGGGSGGGSGGGS
B14: Pla2r1_7 CRD-mouse IgG2a-Fc fusion protein (Fc fusion)
chain: YGNRTYKIIRGNMTWYAAGKSCRMHRAELASIPDAFHQAFLTVLLSRLGHTHWIGLSTTDNGQTFDWSDGTKSPFTYWKDEESAFLGDCAFADTNGRWHSTACESFLQGAICGGGSGGGSGGGS
B15: Mrc2_2 CRD-mouse IgG2a-Fc fusion protein (Fc fusion)
chain: FQGHCYRLQAEKRSWQESKRACLRGGGDLLSIHSMAELEFITKQIKQEVEELWIGLNDLKLQMNFEWSDGSLVSFTHWHPFEPNNFRDSLEDCVTIWGPEGRWNDSPCNQSLPSICKGGGSGGGSGGGS
B16: Sele CRD-mouse IgG2a-Fc fusion protein (Fc fusion)
chain: WYYNASSELMTYDEASAYCQRDYTHLVAIQNKEEINYLNSNLKHSPSYYWIGIRKVNNVWIWVGTGKPLTEEAQNWAPGEPNNKQRNEDCVEIYIQRTKDSGMWNDERCNKKKLALCYGGGSGGGSGGGS
B17: Lgals8_1 CRD-mouse IgG2a-Fc fusion protein (Fc fusion)
chain: YVGTITEQLKPGSLIVIRGHVPKDSERFQVDFQLGNSLKPRADVAFHFNPRFKRSSCIVCNTLTQEKWGWEEITYDMPFRKEKSFEIVFMVLKNKFQVAVNGRHVLLYAHRISPEQIDTVGIYGKVNIHSIGFRGGGSGGGSGGGS
B18: Selp CRD-mouse IgG2a-Fc fusion protein (Fc fusion)
chain: WTYNYSTKAYSWNNSRVFCRRHFTDLVAIQNKNEIAHLNDVIPFFNSYYWIGIRKINNKWTWVGTNKTLTEEAENWADNEPNNKKNNQDCVEIYIKSNSAPGKWNDEPCFKRKRALCGGGSGGGSGGGS
B19: Ly75_8 CRD-mouse IgG2a-Fc fusion protein (Fc fusion)
chain: FQNSCYNFMITNNRHKTVTPEEVQSTCEKLHSKAHSLSIRNEEENTFVVEQLLYFNYIASWVMLGITYENNSLMWFDKTALSYTHWRTGRPTVKNGKFLAGLSTDGFWDIQSFNVIEETLHFYQGGGSGGGSGGGS
B20: Pkd1l3 CRD-mouse IgG2a-Fc fusion protein (Fc fusion)
chain: GGNSCYQLNRLFCDFQEADNYCHAQRGRLAHTWNPKLRGFLKSFLNEETVWWVRGNLTLPGSHPGINQTGGDDVLRNQKPGECPSVVTHSNAVFSRWNLCIEKHHFICQGGGSGGGSGGGS
B21: Lgals2 CRD-mouse IgG2a-Fc fusion protein (Fc fusion)
chain: KFEVKDLNMKPGMSLKIKGKIHNDVDRFLINLGQGKETLNLHFNPRFDESTIVCNTSEGGRWGQEQRENHMCFSPGSEVKITITFQDKDFKVTLPDGHQLTFPNRLGHNQLHYLSMGGLQISSFKLEGGGSGGGSGGGS
B22: Cd209d CRD-mouse IgG2a-Fc fusion protein (Fc fusion)
chain: FFNGSCYFFSKSQRNWHNSTTACQELGAQLVIIETDEEQTFLQQTSKARGPTWMGLSDMHNEATWHWVDGSPLSPSFTRYWNRGEPNNVGDEDCAEFSGDGWNDLSCDKLLFWICKGGGSGGGSGGGS

Assays:
[1] = target: T1, human recombinant soluble ACE2 (human, UniProt Q9BYF1 18-740); experiment: ELISA
T1 construct: also called hrsACE2
T1 sequence (Q9BYF1 18-740 limits assumed): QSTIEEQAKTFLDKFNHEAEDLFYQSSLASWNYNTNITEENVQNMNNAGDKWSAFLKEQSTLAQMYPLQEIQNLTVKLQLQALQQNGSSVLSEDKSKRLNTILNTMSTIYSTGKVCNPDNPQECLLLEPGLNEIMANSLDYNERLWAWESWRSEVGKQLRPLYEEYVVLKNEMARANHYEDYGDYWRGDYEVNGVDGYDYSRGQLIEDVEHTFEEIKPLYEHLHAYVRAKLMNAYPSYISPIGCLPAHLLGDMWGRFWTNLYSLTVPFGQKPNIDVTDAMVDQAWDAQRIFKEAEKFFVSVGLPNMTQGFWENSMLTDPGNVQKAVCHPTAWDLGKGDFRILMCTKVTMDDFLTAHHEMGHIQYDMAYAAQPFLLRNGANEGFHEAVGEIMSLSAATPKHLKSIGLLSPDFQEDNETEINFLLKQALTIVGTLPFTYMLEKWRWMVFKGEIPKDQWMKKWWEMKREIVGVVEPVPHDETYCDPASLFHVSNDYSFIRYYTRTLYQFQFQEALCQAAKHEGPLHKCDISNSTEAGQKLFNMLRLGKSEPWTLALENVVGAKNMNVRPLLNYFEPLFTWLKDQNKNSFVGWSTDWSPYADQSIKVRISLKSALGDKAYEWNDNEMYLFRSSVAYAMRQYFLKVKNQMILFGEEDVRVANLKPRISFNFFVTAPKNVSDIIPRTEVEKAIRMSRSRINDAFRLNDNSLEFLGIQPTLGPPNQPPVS

[2] = target: T1, human recombinant soluble ACE2; experiment: ELISA screen
[3] = target: T2, monomeric SARS-CoV-2 receptor binding domain (RBD-H6) (SARS-CoV-2, UniProt P0DTC2 319-541); experiment: ELISA screen
T2 construct: Made in HEK293-6E cells; also called RBD Spike; monomeric RBD

[4] = target: T3, full-length trimeric SARS-CoV-2 Spike protein (Spike-H6) (SARS-CoV-2, N-glycosylated (22 N-glycosylation sites)); experiment: ELISA screen
T3 construct: also called trimeric Spike; full-length Spike-H6

Binder	binding result [1]	Mean normalized OD [2] [OD]	Mean normalized OD [3] [OD]	Mean normalized OD [4] [OD]
B1	no binding (tested: 10 µg/ml)	0	0.106	-0.028
B2	no binding (tested: 10 µg/ml)	0.031	0.014	0.034
B3	no binding (tested: 10 µg/ml)	0.065	0.036	0.029
B4	no binding (tested: 10 µg/ml)	0.01	0.003	0.003
B5	no binding (tested: 10 µg/ml)	0.088	0.053	0.063
B6	no binding (tested: 10 µg/ml)	0.031	0.009	0.025
B7	no binding (tested: 10 µg/ml)	0	0.002	0.002
B8	no binding (tested: 10 µg/ml)	0.161	0.076	0.109
B9	no binding (tested: 10 µg/ml)	0.074	0.012	0.037
B10	no binding (tested: 10 µg/ml)	0	0.001	0.14
B11	no binding (tested: 10 µg/ml)	0.005	0.003	0.007
B12	no binding (tested: 10 µg/ml)	0.047	0.01	0.026
B13	no binding (tested: 10 µg/ml)	0.049	0.028	0.014
B14	no binding (tested: 10 µg/ml)	0	0	0.002
B15	no binding (tested: 10 µg/ml)	0.009	0.038	0.017
B16	no binding (tested: 10 µg/ml)	0	0	0.001
B17	no binding (tested: 10 µg/ml)	0.062	0.031	0.019
B18	no binding (tested: 10 µg/ml)	0	0.007	0.014
B19	no binding (tested: 10 µg/ml)	0.054	0.007	0.011
B20	no binding (tested: 10 µg/ml)	0.017	-0.001	0.046
B21	no binding (tested: 10 µg/ml)	0.031	0.018	0.035
B22	no binding (tested: 10 µg/ml)	0.039	0.019	0.01
